Patent US20170010270A1 (Chugai, published 2017)

Experiments:
[1] = target: T1, AW2, C-terminally His-tagged recombinant product of positions 1 to 196 of GPC3 (human, UniProt P51654 25-196); assay: Western blot of CHO cell pellets, reducing
T1 construct: Expressed in CHO cells; cell pellets used in reducing Western blot; Construct is stated from position 1; also called AW2 (1-196); not shown: C-terminal His tag

[2] = target: T2, AW3, C-terminally His-tagged recombinant product of positions 1 to 218 of GPC3 (human, UniProt P51654 25-218); assay: Western blot of CHO cell pellets, reducing
T2 construct: Expressed in CHO cells; cell pellets used in reducing Western blot; Construct is stated from position 1; not shown: C-terminal His tag

[3] = target: T3, GPC3 peptide, amino acid position 321-350 (SEQ ID NO: 17) (human); assay: ELISA on immobilised peptide, antibody at 2 µg/mL
T3 construct: synthetic 30-residue peptide of GPC3
T3 peptide: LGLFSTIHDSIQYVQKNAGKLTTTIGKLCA
Protocol: In order to identify more detailed epitopes for the antibodies, the amino acid sequence of GPC3 was divided into peptides of 30 residues containing 10-residue overlaps, and the corresponding peptides were synthesized (SEQ ID NOs: 1 to 29 in Table 2). Each peptide thus synthesized was dissolved at a concentration of 1 mg/mL in dimethyl sulfoxide and then diluted to 1 μg/mL with PBS. The diluted peptide solution was added at 70 μL/well to a 96-well plate and immobilized thereon at room temperature for 1 hour. After removal of unimmobilized peptides, 20% Blocking-one (Nacalai Tesque, Inc.) was added thereto as a blocking buffer solution at 200 μL/well, and the plate was blocked overnight. After removal of the blocking buffer solution, each well was washed with TBS-T three times, and each antibody diluted to 2 μg/mL with a blocking buffer was then added thereto at 70 μL/well. One hour later, the antibody was removed, and each well was washed three times by the addition of TBS-T at 200 μL/well. An HRP-bound anti-mouse antibody was added at 70 μL/well to each well and reacted therewith for 1 hour. […] The reaction was terminated by the addition of 1% SDS at 70 μL/well, and the absorbance at 405 nm was measured using a plate reader.

T2 sequence (P51654 25-218): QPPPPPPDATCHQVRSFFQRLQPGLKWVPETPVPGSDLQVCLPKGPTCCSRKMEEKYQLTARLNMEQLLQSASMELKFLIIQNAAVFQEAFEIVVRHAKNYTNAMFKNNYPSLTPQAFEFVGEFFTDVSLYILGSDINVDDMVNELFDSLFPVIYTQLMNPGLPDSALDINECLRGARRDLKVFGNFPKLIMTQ
T1 sequence (P51654 25-196): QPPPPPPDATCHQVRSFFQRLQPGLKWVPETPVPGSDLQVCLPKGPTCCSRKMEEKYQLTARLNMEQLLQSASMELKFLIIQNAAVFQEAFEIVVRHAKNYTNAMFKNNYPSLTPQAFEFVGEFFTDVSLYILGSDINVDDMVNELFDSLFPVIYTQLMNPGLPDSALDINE

- binding result [1]: no binding
- binding result [2]: no binding
- binding result [3]: binds
B1: GT30 antibody (antibody, V domains shown)
VH: QVQLQQSGAELARPGASVKLSCRASGYTFTSYGISWMMQRTGQGLEWIGEIYPRSGITYYNEKFKGKATLTADKSSSTAYMQLSSLTSEDSAVYFCARDVSDGYLFPYWGQGTLVTVSA
VL: DIQMTQSPASLSASVGETVTITCRTSENIYSYLAWYQQKQGKSPQLLVYNAKTLPEGVPSRFSGSGSGTQFSLKINSLQPEDFGSYYCQHHYGTPPTFGGGTKLEIKR
